This is an account of results in the DeepSol protein solubility set.

A short description of this data set: soluble on expression in E. coli; label from the status in PepcDB or PDB records.
For “MSLAQLDKNDPARGVLAAIAANASKIAEYDPRVRADEYDSVHQMRVATRELRSHLQTFEGILGGEDYLNLEKELKVLANILGRARDAEVVEERLSNLINTEVGDSIEEETKKELLEDLGAEYRREHERVVRALDNDRYTDLLQALENLLVDPPLITEVEEPEATEAPESAETTESTDVSEATEEADAEAESVEEATEQEESADAPESADLDALDEEYSPGSQAPVEEPKEPKKVDAALVLLEHLDKAHVKLVKLEKKARSQWDDLSIPMLEREENFHNLRKAAKKLRYSAEAVGKATTVETKKLYKACSGLQSVLGDYQDAITSRNELLRRAQVARRQGRDTFAYGILYQHEQTLSREYLTGYSDAFKSVEKAYAKLAEDTAKRSKKNKRKEGHHHHHH”, the “soluble on expression in E. coli” value was “not soluble”.
For “MNYSACTSILVGPQATMDGSVLIGRNEDAKAAWPKHFIVHPATTVATPPQFVSTDNGFTMPLPTQAAKYTATPEWTDKYGLFEEDGINEYGVAMSATESTYSNERVLGADPLVKDGLGEEAMVTVVLPYVKTAREGVARLGQLIEQYGTNESNGILFADQQEAWYLETGAGHYWVAQRIPANAYAVVANQMAIQAVDFADADNFMFAKNLQAFVTDNHLNPHPDRFIWREIFGTQDQSDLYYNTPRVWYGQKRFTPQVSQEPQSFDLPFIQYADRLLSVGDAQQYLSSHFEETPYDPVGSGTAEQKHRFRPVSLAKTQESHVLQLRPNMTPGLAGIQWLAMGVGAQSVYVPFYAGIDSTPEAYHLGTETYDSKSAYWTYKLVSVLLDAHYHTALPTVSETQKALRIAFKQAVQETDRGAQTLSGTELSRYLTQRSNEVAELGLKRYRELAATLITRATDLGPLNYHQDLNLLEHHHHHH”, the “soluble on expression in E. coli” value is on record as “not soluble”.
Turning to “MSDVAIVKEGWLHKRGEYIKTWRPRYFLLKNDGTFIGYKERPQDVDQREAPLNNFSVAQCQLMKTERPRPNTFIIRCLQWTTVIERTFHVETPEEREEWTTAIQTVADGLKKQEEEEMDFRSG”, the “soluble on expression in E. coli” value is “soluble”.
The entry for “MGSDKIHHHHHHMKISLGPIHYYWSKENIEQFYRRAEHWPVDIVYLGETVCAKRRALRSADWLDIAARLTDAGKEVVLSTLALLEANSDLLQLERICANTHYLVEANDMSAVHLLAGRGPFVIGPHINCYNAETLSLLADLGGRRWIPPVELPATTIAMLQNTRPETMETEAFAYGYLPLSFSARCFTARADNVGKDACELRCIKDPEGRALFTQEQERLFTINGIQLQSGIPCNLLNETVAMSEMGMDIVRISPQLTATESVIRAFHAVLNGEISPPVEYGSPACNGYWYGKPGMQFSPVQGH” is “not soluble”; for “MGSDKIHHHHHHMIIHEITEECFKKYGKVIDSIDLTELVSTMQTVEIPADVVYEPSISALEKLKCATELQQKTYGELPIQIGWCIGNNHKLNAVEYHRCSEVNIAATDAILILGRQQDISVENTYDTSLMEAFRIPSGTAVELYATTLHYAPCNASAGGFLVAVVLPKGTNEALEHPHTGGEDALLAAKNKWLIGHPEGGLPDGSYIGLTGENLEIK” it is “not soluble”; for “MGSDKIHHHHHHMETAAELKTRLIAQAKAEGFVSVRLCRPWDVPEVPERLRAFLEAGYHGQMKWMAERINWRENPAALWPEARSVIMLAESYTPDEDPMAVVGLPDRAAISVYARGKDYHDLVKKRLKRLARWLIEEAPDEAQVKVFVDTAPVPEKALGQASGLGWQGKHTNLVSRDWGNWAFLGSIFTTLDLPVDAPEPDRCGSCRACLTACPTDAFPAPYQLDARRCISYLTIEHKGPIEEELRTKLGNRIYGCDDCLAACPWNKFAVEASDMRYAAREGTIAPPLAELSQLDDAAFRARFSGSPIKRIGRDRFVRNVLYAIGNSGDAGLHVFAQALCDDPDPTVAEAARWAAARLP” it is “not soluble”.
For the sequence “GYMDLMPFINKAGCECLNESDEHGFDNCLRKDTTFLESDCDEQLLITVAFNQPVKLYSMKFQGPDNGQGPKYVKIFINLPRSMDFEEAERSEPTQALELTEDDIKEDGIVPLRYVKFQNVNSVTIFVQSNQGEEETTRISYFTFIGTPVQATNMNDFK”, the “soluble on expression in E. coli” value is “soluble”.
The entry for “MGSDKIHHHHHHMFEKQFNHRTLETSLGPVEIEGPVTSQILATYKLDPGLTAFRQPAEQHEALVEIAALEEGRIIIARQGNDIIGYVTFLYPDPYETWSEGNNPYILELGAIEVAARFRGQQIGKKLLEVSMLDPAMEHYLILTTEYYWHWDLKGSGLSVWDYRKIMEKMMNHGGLVFFPTDDPEIASHPANCLMARIGKHVAPEVVAHFDALRLRRRFMYD” is “not soluble”.
